The data set is described as follows: soluble on expression in E. coli; label from the status in PepcDB or PDB records.
“MGSDKIHHHHHHMRPDCTDFRQLFLDDVPMMDMRAPVEFAKGAFPGVVNLPLMNDQERQKVGTCYKQQGQAAAIALGHQLVSGATKQARLEAWAAFAKAHPDGYLYCFRGGLRSQIVQGWLRDEAGIQYPRVKGGYKAMRTFLLETTQQAVEQCDFVLVGGLTGTGKTDVLHQLDNVLDLEGHANHRGSSFGKRATAQPAQIDFENQLAIDVLKKRARGIGQFVLEDEGRIVGSCTVPLELYQGMQHYPLVWLEDSFTNRVERILRDYVVNLSAEFKAVHGEEDGPRLFAERMLQSMANIYKRLGGERHQRLSEMLREALQEQQRSGAVDLHRGWIEGLLNEYYDPMYAYQRAAKAERIEFAGDAVEVREYLKARALRQPRK”: the “soluble on expression in E. coli” value is listed as “not soluble”.

Regarding “MGFVDRGGGREAKGASLRRSKNNPGASIAKNKSAKKDYTTPATRATPTPPPACLPVLKALMAAASAGATAMEATAASTVTDFEKALAAVRDAAQTGGSPYIDAAVALLSRKLEEDREGIFRRAAEEGKLAAVVCWCGEAERQSLLLNTCVQHNKLYRGTLEQQQRSSATGGGARHVHFNVDGAVVASVAAAVTTSSSSTKASILLYAVLGIHVNSIDRVNMRLHDQWVKELEANVKHSDVVGVLTGLNLSREHGTHYAQERLFKECWRVAAEVRLPLVLHLGAADAASLTETVNRAAKLLDELLAATSATADGAGAAPSAVVLHNGLRALHASTAMQQLVRAHRPAAGRTAAAVPFYVLATADGLAVAKTEGSETEVTATTDSGPSVEALAALLPPRAGLGSNSDSATTTSSGGDAAVHLSQLLIGTGAPWGTPQNLPDPYLCTLPNEPGNYAYVVQTLYDAMRAPPPPPTAAAAAAELTLADLSAIAAVNYLLAFFHECVWEQEQQQQQQRSGSDDETTADALQQQQRRWVESQQPVVVAGLADSDVKRDLEALLAEAAKERERMEQERLREEAGLAQARSEELQQKRSRRERKKNVKANNRSNFTHFRNKDFAPRQSKQEKPAHLREVVGIREGGSTDVDGRERTPSSSSAASDSGSAGGPNSLAAQVERLLKANAAHRDPECRAQRQPAGRGKGRGQNALAGSRKVGRSADMKSSEQPQQQYGAGAGGKAENGSPSDGSDDDDERYTRTRAL”, the “soluble on expression in E. coli” value is reported as “not soluble”.

Consider “MVTLYGIKNCDTIKKARRWLEANNIDYRFHDYRVDGLDSELLNGFINELGWEALLNTRGTTWRKLDETTRNKITDAASAAALMTEMPAIIKRPLLCAPGKPMLLGFSDSSYQQFFHEV”, for which the “soluble on expression in E. coli” value is listed as “not soluble”.

Turning to “MLTIERHEQIVKLVQEKEVVTIHDLVEYTNASESTIRRDLTELEKQKKLKRIHGGASVLKKRREEPTMAEKTVKNNHEKKKIAELAASFVEDGDCLFLDAGTTTYELIPFIKTKKIVVVTNGLDSISALLEAGVETYVIGGTVKQGTRAFVGRHAIQSLQTFRFDKAFLGINGVHLEDGFTTPDPQEAYVKETALSLSREAFMLVDHSKFGETTFATVAPIHAATIVTSSQVEQQVIQAYETQTAVKVVTLLEHHHHHH”, the “soluble on expression in E. coli” value is reported as “soluble”.

Take “MGSDKIHHHHHHMSKILNTQLIGIFNRLEKQSLEIQMAAQCLIQAIGGEGYVYVKGYDDLQFFESFILHSDERLKSSRKLDAIKDFKEIDSTDRVLLFAPFYNDQVALDIQKLIDLDIDVVLISNKPKTDDFPDHLVHFIDLSTPRPIVYTEDYDKIVQPHAIALNYVYYDIYTQMIEMTRDLEL”: the “soluble on expression in E. coli” value is “not soluble”.

On to “MGSDKIHHHHHHMIAHPCYVDKFSQQVHFHAIDFARSRWNIFLLWQLKNLIQQIQPAIVHAQAGKAAELIARIKPFLSGPKFITTVHGTKKNKSAYLAGDAVIAVSQALTQGIPESKAHVVYNGVYPQPVLTTENKEKLLQSIQKDFTELDTSKRVVMCIGRLEPVKNISLLIESMQQIDANLWIVGDGSLRASLEKQVSELNMQNRVAFLGFRTDARDLVQLADIVVLSSDREGFPLVMVEALQADKAMASTKVNGVIEWLPEQYLAEIGDTQGLAKAIEYALQPEAQNDFGPLYAKAKAELTVPAMAEQTLNIYKGLLKT”, for which the “soluble on expression in E. coli” value is reported as “not soluble”.

With “MKMMPSKLQKNKQRLRNDPLNQNKGKPDLNTTLPIRQTASIFKQPVTKVTNHPSNKVKSDPQRMNEQPRQLFWEKRLQGLSASDVTEQIIKTMELPKGLQGVGPGSNDETLLSAVASALHTSSAPITGQVSAAVEKNPAVWLNTSQPLCKAFIVTDEDIRKQEERVQQVRKKLEEALMADILSRAADTEEMDIEMDSGDEALEHHHHHH”, the “soluble on expression in E. coli” value is reported as “soluble”.

Turning to “MIVLNCIRYLGMTDINEIGRLTLYEYDLLMTGKALAAVDESHKAHKQAWINHQVTATKLVGGKKNKKEVPVYKKFKDFFDYEEEIRKITQEIDEGYDKKGMDLLLKANL”, the “soluble on expression in E. coli” value is on record as “not soluble”.

For the sequence “MSLENFRSNVRKPTMSLQIAVEKVRWLAAGLLELNGCDADIAQDVAEHMIEAERYGFASHGVTLLPKYLENIARGDVTANARPECLTSEGNLQRFHAHNGFGQHAGKVAVNAAIEQAKRRGFCLLTLCHAHHLGRMGHYGQMVADQGLAMLAMSNVTGRPALVAPWGGAEPRMTTNPFCFAWPFSDGRPPILVDFATSSMALNKARVMSSTGKQAAPGQLIDAQGNPSNDPGVLFSNPPGALLPFGEHKGFGLALMIEMMAGILSGGDTIAEDHQTDGSAHNHLFALIIDPDQFTDLAGEKGQFFADYLLATQPQPGGNPVIYPGMPEAANRERNAKMITIPVSFWSWVVEHYARKGIDLGLHPQESALAEGHHHHHH”, the “soluble on expression in E. coli” value is “soluble”.

As to “MKKMGGKIFAVRVTQGQEENTARLIYSKVKTYNLPIYAILAPSKVKGYIFIEAPEKSVVDEAIRGIRHARGVLPGEIPFSEIEHFLEEKPAVSGLEPGDIVELISGPFKGEKAKVVRVDESKDEIVVELIGAIVPIPVTVRGEYVRLISKRQKEE”, the “soluble on expression in E. coli” value is on record as “soluble”.

For the sequence “HMAKATTIKDAIRIFEERKSVVATEAEKVELHGMIPPIEKMDATLSTLKACKHLALSTNNIEKISSLSGMENLRILSLGRNLIKKIENLDAVADTLEELWISYNQIASLSGIEKLVNLRVLYMSNNKITNWGEIDKLAALDKLEDLLLAGNPLYNDYKENNATSEYRIEVVKRLPNLKKLDGMPVDVDEREQANVARGG”, the “soluble on expression in E. coli” value is given as “soluble”.

Take “MAHHHHHHMLVSERAQPVRLFNCLLLRAHKDDESDGAACALHKNAASTSPTTDPIAAATAVGATRLYFTEGGPSSSLTALQRYLKVEEAHTTCPLLRVLQLAPQAPTGNMQPLVYVELDTPNAVSLSDDAQGRREAVLTTCSGVCTQETMPSRWYHAPVKATLCVFQEFMRAPTTSAASEPAFWAFLESVVRYHARDFYCGAVQVELQCVFVPTFEEKQNTAYSVDVFGDYVNEKEGQAQQSSPAAGKGRTAMKICVKSTEAFEHVMAYLKTQCPLLEADFRSSHLVVYAKWSSQLSAVRDSSHSQPPAADATGAVEQAACFVWLQDDAGGGGRDGVYADAALEALLDELTLAAASISTPSRAAAVLQEEGVSSFFEACCLTHTLKRVIRKHFQAVVLRQRPLFHWVISLPPYARLSRSTTSAAVTAMRFRDNAAVSRAVWGATQMLVHWQQLSNSAHALANEALKQSFGRGSGPSRQIVSAPARVPRQRRAIQQSALYGDTFSGGSALDRQRGKVNVPHLYGADEGHDASISLSSAQRGSVMAASGLFHNLRSIKEDSFNNTSVLDAEDVFGSNPKLTTRVVKRLAQSRTSVHTAQ”: the “soluble on expression in E. coli” value is listed as “not soluble”.

For the sequence “MAHHHHHHMKYNEAQMRFYLLCLNMKQANTKEDKSQKISNSSTIDEIEEEQLYTGPLKIEQLLAKGFVKRDLELLKEGGLQTVECVAYAPMRTLCAIKGISEQKAEKLKKACKELCNSGFCNAIDYHDARQNLIKFTTGSKQLDALLKGGIETGGITELFGEFRTGKSQLCHTLAITCQLPIEQSGGEGKCLWIDTEGTFRPERIVAIAKRYGLHPTDCLNNIAYAKAYNCDHQTELLIDASAMMADARFALLIVDSATALYRSEYIGRGELANRQSHLCRFLRGLQRIADIYGVAVIITNQVVAKVDAMSMFGGHEKIPIGGNIIAHASQTRLYLRKGRGESRICKIYDSPVLPEGEAVFAITEGGIADYEEK”, the “soluble on expression in E. coli” value is listed as “not soluble”.

As to “MEFEFIRNTLMGEYYVKCSMGHEIVGRWLQEEIGKDPTMIAQVEALIDKAFSLPSQEHTLTGTEISLMIQGDEVLVQENALSHDYDVEMESEFDFYDAESTASCGIEDFVALIEQWKDFLNI”, the “soluble on expression in E. coli” value was “not soluble”.

Consider “VINARLGKKDEINVCKLKISAWDEEEAVCIMSISEERMFILKMLEEGKITSEEAARLLEAIDPDKGTADSGSGFKAQQRKTNFADEVSKVRDKLNEWKKEFKKNYNQKDFERAVDEFSSKVEKLGKNLAYTTIGVADKLVDFISSFVETNSFNVFGKYKATNRVFEVPDVNEDMELNIEAINGHILVKKHMENKVIIRTTVKSPADNADEILDFSREENKVTLKCNKIGNISVSHEIFLPSVKVKNISLVTKNGKVYVEDSISENFEAVTSNSNVDLMGVNGDKINVSNKNGRINFGYIIGKDINIDAVNSVIEIRQIKTTNINASTRNGRIFIENVHNHNDDPNINMNLKTSSADIKVNMNDMEKRGYKIKAQTTHAEINLLIPEMTYRNISKQMSSNFVEADSDGYDDYINKVNIVAETTNGNIEIVK”, for which the “soluble on expression in E. coli” value is recorded as “not soluble”.

Take “MGHHHHHHSHKPGLSTSIPLRMSSYTFKRPVTRITPHPGNEVRYHQWEESLEKPQQVCWQRRLQGLQAYSSAGELSSTLDLANTLQKLVPSYTGGSLLEDLASGLEHSCPMPHLACSSDAVEIIPAEGVGISQLLCKQFLVTEEDIRKQEGKVKTVRERLAIALIADGLANEAEKVRDQEGCPEKR”: the “soluble on expression in E. coli” value is given as “not soluble”.

Turning to “MSLNTEIEMNELLEKAKKIKCLICDVDGVLSDGLLHIDNHGNELKSFHVQDGMGLKLLMAAGIQVAIITTAQNAVVDHRMEQLGITHYYKGQVDKRSAYQHLKKTLGLNDDEFAYIGDDLPDLPLIQQVGLGVAVSNAVPQVLEFADWRTERTGGRGAVRELCDLILNAQNKAELAITGYLKQEGHHHHHH”, the “soluble on expression in E. coli” value was “soluble”.

With “MKKPIHSHRAATLYHFAFCLHNLRRSPNSPFTVRNRDEQKDEKPYENKGKINKFFLDLTYFQLPYPVSERAPLRLRAKIETREKINFKIRASSSPAVLVNFPFPRHSLLVSLSPAHETNNAVDGEALHPRAQRA”, the “soluble on expression in E. coli” value is recorded as “not soluble”.

With “MSESITITANSIDNPETDVRRNERFHLVPRKRLEALVTTSGLIGAMIGFYDGVKISSLRYLTENAHRMPKTVGGWYFYHKKKNYVMIVAGVKKAITTSFKYGAAVGGFFGLEYLLDISRGNTIDFFNTTTAAFLTSTFYAKYNKLSSMQTRKMIFKGTALGLTLGLIQDYLIHARKGRVWYLDRYTQQKLV”, the “soluble on expression in E. coli” value was “not soluble”.

As to “FERGHEFSFAQAVRLLRLLAAAQGREGACPCGVRVRPELSLSFPVADVARIERQSDGYRITARFLGLYGPSSPLPTFYTEELIDEEREDGSASRDFLDVLSHRIFDLWVAGDAKYRLFNRVVEDGSGDDLERLFCLAGLDLAQGQTVLPESGRWLRYVGLLGQVPRSALGLRTMVADALGVPVEVIPCQHRQVSIPPGQRLAVGIAASSLGIDTVVGTNLDDRLGMFRLCLGPLSREQFADLLPGAPGRSTLDLIVELYLDAPLAWDVELTLAPGETPEARLGACRGARVGWDTWLGV”, the “soluble on expression in E. coli” value is “not soluble”.

“MGHHHHHHSHMYLRHDKPPYTYLAMIALVIQAAPSRRLKLAQIIRQVQAVFPFFREDYEGWKDSIRHNLSSNRCFRKVPKDPAKPQAKGNFWAVDVSLIPAEALRLQNTALCRRWQNGG”: the “soluble on expression in E. coli” value was “soluble”.

In the case of “MDVPTAISIERVVKEMKSLEITLHITPTGPSVGFANINGFNFQFIVLPSVLIARADRYLSETKSDPRIYLASNEVNNRTVRGGIFVVDNSAAPIMRAEVDICSAAGLTDSQLHMCLSNSVNDVLDLQHSWAKATAI”, the “soluble on expression in E. coli” value is “not soluble”.

Values taken from the DeepSol protein solubility set.
